Reference: paper PMC9913075

Biological target: Taspase1, endogenous in HeLa cells (human (endogenous in HeLa)) (UniProt Q9H6P5)
Experiment: proximity ligation; Duolink PLA on fixed HeLa cells with rabbit anti-Topoisomerase IIα/β and mouse anti-Taspase1; foci per nucleus counted

Chain of UniProt Q9H6P5 (Q9H6P5 whole entry): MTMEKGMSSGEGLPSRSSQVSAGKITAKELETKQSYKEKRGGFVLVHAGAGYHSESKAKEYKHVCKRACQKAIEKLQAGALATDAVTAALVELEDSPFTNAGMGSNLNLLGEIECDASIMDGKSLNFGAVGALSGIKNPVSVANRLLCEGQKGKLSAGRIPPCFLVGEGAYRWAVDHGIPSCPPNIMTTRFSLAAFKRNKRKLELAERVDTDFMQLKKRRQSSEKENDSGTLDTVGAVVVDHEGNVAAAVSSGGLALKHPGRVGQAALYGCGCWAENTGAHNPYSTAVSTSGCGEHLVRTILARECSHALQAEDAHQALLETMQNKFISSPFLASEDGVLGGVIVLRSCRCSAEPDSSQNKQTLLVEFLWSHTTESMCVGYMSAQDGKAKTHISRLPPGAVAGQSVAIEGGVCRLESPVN

PLA foci per nucleus (median) (foci per nucleus): 45
Substance: Topo IIα/β (endogenous, HeLa cells, detected with an antibody that recognises both isoforms)
